The values that follow come from US11278600B2, “Human alpha-galactosidase variants” (Codexis, Inc., priority 2014, dated 2022).

Holding throughout (type): biochemical
Data set [1] is described as follows: HTP-analysis of supernatants pretreated with base (MUGal hydrolysis). The settings on record: challenge at pH 7.0; activity of the variant/activity of WT GLA (SEQ ID NO: 5); yeast supernatant. How it is done: (§1) Yeast (INVSc1) cells transformed with vectors expressing GLA and GLA variants using the lithium acetate method were selected on SD-Ura agar plates. After 72 h incubation at 30° C. colonies were placed into the wells of Axygen® 1.1 ml 96-well deep well plates filled with 200 μl/well SD-Ura broth (2 g/L SD-Ura, 6.8 g/L yeast nitrogen base without amino acids [Sigma Aldrich]), 3.06 g/L sodium dihydrogen phosphate, 0.804 g/L disodium hydrogen phosphate, pH 6.0 supplemented with 6% glucose. The cells were allowed to grow for 20-24 hours in a Kuhner shaker (250 rpm, 30° C., and 85% relative humidity). Overnight culture samples (20 μL) were transferred into Corning Costar® 96-well deep plates filled with 380 µL of SD-ura broth supplemented with 2% glucose. The plates were incubated for 66-84 h in a Kuhner shaker (250 rpm, 30° C., and 85% relative humidity). The cells were then pelleted (4000 rpm×20 min), and the supernatants isolated and stored at 4° C. prior to analysis.
GLA variants were challenged with basic (neutral) buffer to simulate the pHs that the variants encounter in the blood following their administration to a patient. First, 50 μL of yeast culture supernatant and 50 uL of McIlvaine buffer (pH 7.0-8.2) or 200 mM sodium bicarbonate (pH 9.1-9.7) were added to the wells of a 96-well round bottom plate. The plates were sealed and incubated at 37° C. for 1-18 h. For the assay, 10-50 μL of basic-pH-challenged sample was mixed with 0-40 μL, of McIlvaine buffer pH 4.8, 25 μL, of 1 M citrate buffer pH 4.3 and 25 μL, of 4 mM MUGal in McIlvaine buffer pH 4.8. The reactions were mixed briefly and incubated at 37° C. for 30-180 minutes, prior to quenching with 100 μL, of 1 M sodium carbonate. Hydrolysis was analyzed using a SpectraMax® M2 microplate reader monitoring fluorescence (Ex. 355 nm, Em. 448 nm).

Data set [2] is described as follows: HTP-analysis of yeast culture supernatants, no challenge (MUGal hydrolysis). The note with it: activity of the variant/activity of WT GLA (SEQ ID NO: 5), yeast supernatant. Here is the method: as §1
GLA variant activity was determined by measuring the hydrolysis of 4-methylumbelliferyl α-D-galactopyranoside (MUGal). For this assay, 5-50 μL, of yeast culture supernatant produced as described above, was mixed with 0-45 μL, of McIlvaine Buffer (McIlvaine, J. Biol. Chem., 49:183-186 [1921]), pH 4.8 and 50 μL of 2 mM MUGal in 50 mM citrate, 200 mM KCl, pH 4.6 in a 96-well, black, opaque bottom plate. The reactions were mixed briefly and incubated at 37° C. for 30-180 minutes, prior to quenching with 100 μL, of 1 M sodium carbonate. Hydrolysis was analyzed using a SpectraMax® M2 microplate reader monitoring fluorescence (Ex. 355 nm, Em. 448 nm).

The nature of data set [3]: HTP-analysis of supernatants pretreated with acid (MUGal hydrolysis). The note with it: challenge at pH 4.3; activity of the variant/activity of WT GLA (SEQ ID NO: 5); yeast supernatant. How it is done:
as §1
GLA variants were challenged with acidic buffer to simulate the extreme pHs that the variants may encounter in lysosomes. First, 50 μL of yeast culture supernatant and 50 uL of McIlvaine buffer (pH 3.3-4.3) were added to the wells of a 96-well round bottom plate. The plates were sealed with a PlateLoc Thermal Microplate Sealer (Agilent) and incubated at 37° C. for 1-3 h. For the assay, 10-50 uL of acid-pH-challenged sample was mixed with 0-40 μL, of McIlvaine buffer pH 4.8, 25 μL, of 1 M citrate buffer pH 4.3 and 25 μL, of 4 mM MUGal in McIlvaine buffer pH 4.8. The reactions were mixed briefly and incubated at 37° C. for 30-180 minutes, prior to quenching with 100 μL, of 1 M sodium carbonate. Hydrolysis was analyzed using a SpectraMax® M2 microplate reader monitoring fluorescence (Ex. 355 nm, Em. 448 nm).

B1: 3 (protein)
chain: LDNGLARTPTMGWLHWERFMCNLDCQEEPDSCISEKLFMEMADLMVSDGWKDAGYEYLCIDDCWMAPQRDSEGRLQADPQRFPHGIRQLANYVHSKGLKLGIYADVGNKTCAGFPGSFGYYDIDAQTFADWGVDLLKFDGCYCDSLENLADGYKHMSLALNRTGRSIVYSCEWPLYMWPFQKPNYTEIRQYCNHWRNFADIDDSWKSIKSILDWTSFNQERIVDVAGPGGWNDPDMLVIGNFGLSWNQQVTQMALWAIMAAPLFMSNDLRHISPQAKALLQDKDVIAINQDPLGKQGYQLRQGDNFEVWERPLSGLAWAVAMINRQEIGGPRSYTIAVASLGKGVACNPACFITQLLPVKRKLGFYEWTSRLRSHINPTGTVLLQLENTMQMSLKDLL
modifications: Synthetic Polypeptide sequence of Variant No. 3 of mature Human GLA
Take B1: the “Relative Activity of GLA Variants After Challenge at pH 7.0” value (from here on “Relative Activity … at pH 7.0”) in data set [1] is given as “+ (+ = 0.5 to 1.5 relative activity over WT GLA (SEQ ID NO: 5))”. Further, in data set [2], the “Relative Activity of GLA Variants After No Challenge (NC)” value is “+ (+ = 0.5 to 1.5 relative activity over WT GLA (SEQ ID NO: 5))”. Further, the “Relative Activity of GLA Variants After Challenge at pH 4.3” value (“Relative Activity … at pH 4.3” for short) in data set [3] was “+ (+ = 0.5 to 1.5 relative activity over WT GLA (SEQ ID NO: 5))”.

B2: 5 (protein)
chain: LDNGLARTPTMGWLHWERFMCNLDCQEEPDSCISEKLFMEMADLMVSDGWKDAGYEYLCIDDCWMAPQRDSEGRLQADPQRFPHGIRQLANYVHSKGLKLGIYADVGNKTCAGFPGSFGYYDIDAQTFADWGVDLLKFDGCYCDSLENLADGYKHMSLALNRTGRSIVYSCEWPLYMWPFQKPNYTEIRQYCNHWRNFADIDDSWKSVKSILDWTSFNQERIVDVAGPGGWNDPDMLVIGNFGLSWNQQVTQMALWAIMAAPLFMSNDLRHISPQAKALLQDKDVIAINQDPLGKQGYQLRQGDNFEVWERPLSGLAWAVAMINRQEIGGPRSYTIAVASLGKGVACNPACFITQLLPVKRKLGFYEWTSRLKSHINPTGTVLLQLENTMQMSLKDLL
modifications: Synthetic Polypeptide sequence of Variant No. 5 of mature Human GLA
With B2, the “Relative Activity … at pH 7.0” value in data set [1] is “++ (++ = >1.5 to 2.5 relative activity over WT GLA (SEQ ID NO: 5))”. The “Relative Activity of GLA Variants After No Challenge (NC)” value in data set [2] is “++ (++ = >1.5 to 2.5 relative activity over WT GLA (SEQ ID NO: 5))”. For the same molecule, in data set [3], the “Relative Activity … at pH 4.3” value is listed as “++ (++ = >1.5 to 2.5 relative activity over WT GLA (SEQ ID NO: 5))”.

B3: 7 (protein)
chain: LDNGLARTPTMGWLHWERFMCNLDCQEEPDSCISEKLFMEMADLMVSDGWKDAGYEYLCIDDCWMAPQRDSEGRLQADPQRFPHGIRQLANYVHSKGLKLGIYADVGNKTCAGFPGSFGYYDIDAQTFADWGVDLLKFDGCYCDSLENLADGYKHMSLALNRTGRSIVYSCEWPLYMWPFQKPNYTEIRQYCNHWRNFADIDDSWKSIKSILDWTSFNQERIVDVAGPGGWNDPDMLVIGNFGLSWDQQVTQMALWAIMAAPLFMSNDLRHISPQAKALLQDKDVIAINQDPLGKQGYRLRKGDNFEVWERPLSGLAWAVAMINRQEIGGPRSYTIAVASLGKGVACNPACFITQLLPVKRKLGFYEWTSRLKSHVNPTGTVLLQLENTMQMSLKDLL
modifications: Synthetic Polypeptide sequence of Variant No. 7 of mature Human GLA
For the molecule B3, the “Relative Activity … at pH 7.0” value in data set [1] is “+ (+ = 0.5 to 1.5 relative activity over WT GLA (SEQ ID NO: 5))”. The “Relative Activity of GLA Variants After No Challenge (NC)” value in data set [2] is on record as “+ (+ = 0.5 to 1.5 relative activity over WT GLA (SEQ ID NO: 5))”. In addition, the “Relative Activity … at pH 4.3” value in data set [3] is recorded as “++ (++ = >1.5 to 2.5 relative activity over WT GLA (SEQ ID NO: 5))”.

B4: 4 (protein)
chain: LDNGLARTPTMGWLHWERFMCNLDCQEEPDSCISEKLFMEMADLMVSDGWKDAGYEYLCIDDCWMAPQRDSEGRLQADPQRFPHGIRQLANYVHSKGLKLGIYADVGNKTCAGFPGSFGYYDIDAQTFADWGVDLLKFDGCYCDSLENLADGYKHMSLALNRTGRSIVYSCEWPLYMWPFQKPNYTEIRQYCNHWRNFADIDDSWKSVKSILDWTSFNQERIVDVAGPGGWNDPDMLVIGNFGLSWDQQVTQMALWAIMAAPLFMSNDLRHISPQAKALLQDKDVIAINQDPLGKQGYRLRKGDNFEVWERPLSGLAWAVAMINRQEIGGPRSYTIAVASLGKGVACNPACFITQLLPVKRKLGFYEWTSRLKSHVNPTGTVLLQLENTMQMSLKDLL
modifications: Synthetic Polypeptide sequence of Variant No. 4 of mature Human GLA
For the molecule B4, in data set [1], the “Relative Activity … at pH 7.0” value is listed as “+ (+ = 0.5 to 1.5 relative activity over WT GLA (SEQ ID NO: 5))”. Besides, the “Relative Activity of GLA Variants After No Challenge (NC)” value in data set [2] was “+ (+ = 0.5 to 1.5 relative activity over WT GLA (SEQ ID NO: 5))”. For the same molecule, in data set [3], the “Relative Activity … at pH 4.3” value was “+++ (+++ = >2.5 relative activity over WT GLA (SEQ ID NO: 5))”.

B5: 6 (protein)
chain: LDNGLARTPTMGWLHWERFMCNLDCQEEPDSCISEKLFMEMADLMVSDGWKDAGYEYLCIDDCWMAPQRDSEGRLQADPQRFPHGIRQLANYVHSKGLKLGIYADVGNKTCAGFPGSFGYYDIDAQTFADWGVDLLKFDGCYCDSLENLADGYKHMSLALNRTGRSIVYSCEWPLYMWPFQKPNYTEIRQYCNHWRNFADIDDSWKSVKSILDWTSFNQERIVDVAGPGGWNDPDMLVIGNFGLSWNQQVTQMALWAIMAAPLFMSNDLRHISPQAKALLQDKDVIAINQDPLGKQGYQLRQGDNFEVWERPLSGLAWAVAMINRQEIGGPRSYTIAVASLGKGVACNPACFITQLLPVKRKLGFYEWTSRLKSHVNPTGTVLLQLENTMQMSLKDLL
modifications: Synthetic Polypeptide sequence of Variant No. 6 of mature Human GLA
As for B5, the “Relative Activity … at pH 7.0” value in data set [1] is “+ (+ = 0.5 to 1.5 relative activity over WT GLA (SEQ ID NO: 5))”. In addition, the “Relative Activity of GLA Variants After No Challenge (NC)” value in data set [2] is recorded as “+ (+ = 0.5 to 1.5 relative activity over WT GLA (SEQ ID NO: 5))”. Further, in data set [3], the “Relative Activity … at pH 4.3” value was “+++ (+++ = >2.5 relative activity over WT GLA (SEQ ID NO: 5))”.

B6: 8 (protein)
chain: LDNGLARTPTMGWLHWERFMCNLDCQEEPDSCISEKLFMEMADLMVSDGWKDAGYEYLCIDDCWMAPQRDSEGRLQADPQRFPHGIRQLANYVHSKGLKLGIYADVGNKTCAGFPGSFGYYDIDAQTFADWGVDLLKFDGCYCDSLENLADGYKHMSLALNRTGRSIVYSCEWPLYMWPFQKPNYTEIRQYCNHWRNFADIDDSWKSIKSILDWTSFNQERIVDVAGPGGWNDPDMLVIGNFGLSWDQQVTQMALWAIMAAPLFMSNDLRHISPQAKALLQDKDVIAINQDPLGKQGYQLRKGDNFEVWERPLSGLAWAVAMINRQEIGGPRSYTIAVASLGKGVACNPACFITQLLPVKRKLGFYEWTSRLKSHINPTGTVLLQLENTMQMSLKDLL
modifications: Synthetic Polypeptide sequence of Variant No. 8 of mature Human GLA
Regarding B6, the “Relative Activity … at pH 7.0” value in data set [1] is “+++ (+++ = >2.5 relative activity over WT GLA (SEQ ID NO: 5))”. Further, the “Relative Activity of GLA Variants After No Challenge (NC)” value in data set [2] is “++ (++ = >1.5 to 2.5 relative activity over WT GLA (SEQ ID NO: 5))”. Besides, the “Relative Activity … at pH 4.3” value in data set [3] is listed as “+++ (+++ = >2.5 relative activity over WT GLA (SEQ ID NO: 5))”.
